According to patent publication US7301069B2, “Methods of protecting plants from pathogenic fungi and nematodes” (Pioneer Hi-Bred International, Inc., priority 2004, dated 2007):

Columns and labels:
Verticillium dahliae = experiment: Anti-fungal bioassay (primary screening); assay type: cell-based; set-up: key: 0 = no effect; 1 = partial growth inhibition; 2 = strong inhibition; settings: protease-cleaved fusion protein samples, scored after 18 to 48 hours
Experimental: (§1) The same polypeptides of Example 1 which were recombinantly expressed in E. Coli were also screened in an anti-fungal bioassay against five selected fungal pathogens.
(§2) All fungal strains were grown and maintained on potato dextrose agar (PDA) plates, in a 30° C. incubator. These plates were kept in smaller secondary containers (per fungal strain), with moist paper towels to maintain high humidity. Spores were harvested in a quarter strength of potato dextrose broth (PDB) after about 2 weeks of growth, counted using a hemacytometer, and subsequently stored in small aliquots at −80° C.
(§3) The frozen spores were diluted to the working concentration (determined empirically for each fungal strain), in a quarter strength of PDB, and 50 μL (per well) were added to sterile, flat-bottomed 96-well assay plates. The assay plates were incubated in the humid boxes at room temperature for 5-7 hours to allow the spores to germinate. Serial dilutions of purified, protease-cleaved fusion protein samples were then added to the assay plates, in 50 μL volumes, for a final assay volume of 100 μL per well. The assay plates were allowed to incubate overnight, in a humid box, at 30° C. Antifungal activity was scored after 18 to 48 hours, depending upon the strain of fungus.

Botrytis cinerea = experiment: Anti-fungal bioassay (primary screening); assay type: cell-based; set-up: key: 0 = no effect; 1 = partial growth inhibition; 2 = strong inhibition; settings: protease-cleaved fusion protein samples, scored after 18 to 48 hours
Experimental: as §1, §2, §3

Fusarium oxysporum = experiment: Anti-fungal bioassay (primary screening); assay type: cell-based; set-up: key: 0 = no effect; 1 = partial growth inhibition; 2 = strong inhibition; settings: protease-cleaved fusion protein samples, scored after 18 to 48 hours
Experimental: as §1, §2, §3

Alternaria brassicicola = experiment: Anti-fungal bioassay (primary screening); assay type: cell-based; set-up: key: 0 = no effect; 1 = partial growth inhibition; 2 = strong inhibition; settings: protease-cleaved fusion protein samples, scored after 18 to 48 hours
Experimental: as §1, §2, §3

Fusarium verticillioides = experiment: Anti-fungal bioassay (primary screening); assay type: cell-based; set-up: key: 0 = no effect; 1 = partial growth inhibition; 2 = strong inhibition; settings: protease-cleaved fusion protein samples, scored after 18 to 48 hours
Experimental: as §1, §2, §3

C. elegans = C. elegans feeding bioassay; assay type: in vivo, Caenorhabditis elegans; settings: cleaved peptides; concentrations based on Bradford (BSA standard), assume 100% cleavage of the MBP-Kistrin fusion
Experimental: A number of polypeptides were recombinantly expressed in E. coli and then screened in a nematode bioassay.
C. elegans feeding bioassays. Screening was performed in high throughput using E. coli expressed material, corresponding to the predicted mature regions of various small peptides. Expression of biologically functional polypeptides involved producing a fusion protein that included a maltose-binding protein (MBP) and a polypeptide of interest and subsequently cleaving the fusion protein at a protease recognition sequence to release the peptide of interest. DNA encoding the polypeptide of interest was fused to the C-terminus of the MelE gene in the E. coli expression vector pMAL (New England Biolabs; see, Guan et al., Gene 67:21-30 (1987); and Maina et al., Gene 74:365-73 (1988)). Sequences encoding the cleavage site of proteases Factor Xa or Genenase I were incorporated between the genes of MBP and the polypeptide of interest. A histidine tag was also added to the N-terminus of MBP.
The constructed plasmid vector was transformed into cells of E. coli XL-1 Blue and transformants were grown in 2YT medium containing 50 μg/mL carbenicillin to a cell density of OD600=0.6-0.9. Expression of the fusion protein was induced by addition of IPTG into the culture to a final concentration of 1 mM. Cells were grown for 4-16 hours to saturation before harvesting. Cells were harvested by centrifugation and then lysed with B-PER reagent (Pierce Chemicals, Rockford, Ill.) to obtain the fraction of soluble proteins. The fusion protein was purified from the cell lysate supernatant utilizing the histidine tag by incubating the cell lysate with Ni-NTA agarose resins for 20 minutes to 1 hour. The resins were washed with Tris buffer to remove all unbound proteins. Two-mercaptoethanol (10 mM) was included in the lysis and washing buffers to allow partial refolding of the proteins. Elution of the bound fusion protein was performed with buffer containing 20-40 mM […]. To release the polypeptide of interest, the purified fusion protein was incubated with Factor Xa or Genease I (RT, 8-24 hours). The cleaved protein sample was then used in nematode activity assays.
Hit characterization. Approximate IC50's (in μg/mL) for 4 hits determined from C. elegans bioassay using cleaved peptides. Concentrations were determined based on Bradford (BSA standard) and assume 100% cleavage of the MBP-Kistrin fusion.

B1: Kis2: Kistrin polypeptide of SEQ ID NO: 1 from Arabidopsis thaliana, predicted mature region, recombinantly expressed in E. coli as cleaved MBP fusion (protein, listed as Arabidopsis thaliana)
chain: GKLKPQQCNSKCSFRCSATSHKKPCMFFCLKCCKKCLCVPPGTFGNKQTCPCYNNWKTKEGRPKCP
modifications: PEPTIDE (0)...(0) Kis2 mature peptide
Antifungal score, Verticillium dahliae (Verticillium dahliae): 0
Antifungal score, Botrytis cinerea (Botrytis cinerea): 0
Antifungal score, Fusarium oxysporum (Fusarium oxysporum): 0
Antifungal score, Alternaria brassicicola (Alternaria brassicicola): 0
Antifungal score, Fusarium verticillioides (Fusarium verticillioides): 0
Approximate IC50 from C. elegans bioassay (C. elegans): 15 µg/mL

B2: Kis5: Kistrin polypeptide of SEQ ID NO: 4 from Picea mariana (black spruce), predicted mature region, recombinantly expressed in E. coli as cleaved MBP fusion (protein, listed as Picea mariana)
chain: GSLRPSECGQRCSYRCSATSHKKPCMFFCQKCCAKCLCVPPGTFGNKQVCPCYNNWKTQQGGPKCP
modifications: PEPTIDE (0)...(0) Kis5 mature peptide
Antifungal score, Verticillium dahliae (Verticillium dahliae): 2
Antifungal score, Botrytis cinerea (Botrytis cinerea): 0
Antifungal score, Fusarium oxysporum (Fusarium oxysporum): 1
Antifungal score, Alternaria brassicicola (Alternaria brassicicola): 0
Antifungal score, Fusarium verticillioides (Fusarium verticillioides): 0
Approximate IC50 from C. elegans bioassay (C. elegans): 75 µg/mL

B3: Kis6: Kistrin polypeptide of SEQ ID NO: 7 from Arabidopsis thaliana, predicted mature region, recombinantly expressed in E. coli as cleaved MBP fusion (protein, listed as Arabidopsis thaliana)
chain: GYAKKIDCGSACVARCRLSRRPRLCHRACGTCCYRCNCVPPGTYGNYDKCQCYASLTTHGGRRKCP
modifications: PEPTIDE (0)...(0) Kis6 mature peptide
Antifungal score, Verticillium dahliae (Verticillium dahliae): 1
Antifungal score, Botrytis cinerea (Botrytis cinerea): 0
Antifungal score, Fusarium oxysporum (Fusarium oxysporum): 0
Antifungal score, Alternaria brassicicola (Alternaria brassicicola): 0
Antifungal score, Fusarium verticillioides (Fusarium verticillioides): 0
Approximate IC50 from C. elegans bioassay (C. elegans): 150 µg/mL

B4: Kis10: Kistrin polypeptide of SEQ ID NO: 10 from Petunia x hybrida, predicted mature region, recombinantly expressed in E. coli as cleaved MBP fusion (protein)
chain: GSLKPSQCLPQCTRRCSQTQYHNACMLFCQKCCNKCLCVPPGFYGNKGVCPCYNNWKTKEGGPKCP
modifications: Petunia x hybrida; PEPTIDE (0)...(0) Kis10 mature peptide
Antifungal score, Verticillium dahliae (Verticillium dahliae): 0
Antifungal score, Botrytis cinerea (Botrytis cinerea): 0
Antifungal score, Fusarium oxysporum (Fusarium oxysporum): 0
Antifungal score, Alternaria brassicicola (Alternaria brassicicola): 0
Antifungal score, Fusarium verticillioides (Fusarium verticillioides): 0
Approximate IC50 from C. elegans bioassay (C. elegans): 30 µg/mL
